Target: Mycobacterium tuberculosis MmpL5 (Rv0676c) with a C-terminal 1×FLAG tag (Mycobacterium tuberculosis, UniProt P9WJV1)
Assay: cryo-EM structure

Sequence of Mycobacterium tuberculosis MmpL5 (Rv0676c) with a C-terminal 1×FLAG tag (P9WJV1 whole entry): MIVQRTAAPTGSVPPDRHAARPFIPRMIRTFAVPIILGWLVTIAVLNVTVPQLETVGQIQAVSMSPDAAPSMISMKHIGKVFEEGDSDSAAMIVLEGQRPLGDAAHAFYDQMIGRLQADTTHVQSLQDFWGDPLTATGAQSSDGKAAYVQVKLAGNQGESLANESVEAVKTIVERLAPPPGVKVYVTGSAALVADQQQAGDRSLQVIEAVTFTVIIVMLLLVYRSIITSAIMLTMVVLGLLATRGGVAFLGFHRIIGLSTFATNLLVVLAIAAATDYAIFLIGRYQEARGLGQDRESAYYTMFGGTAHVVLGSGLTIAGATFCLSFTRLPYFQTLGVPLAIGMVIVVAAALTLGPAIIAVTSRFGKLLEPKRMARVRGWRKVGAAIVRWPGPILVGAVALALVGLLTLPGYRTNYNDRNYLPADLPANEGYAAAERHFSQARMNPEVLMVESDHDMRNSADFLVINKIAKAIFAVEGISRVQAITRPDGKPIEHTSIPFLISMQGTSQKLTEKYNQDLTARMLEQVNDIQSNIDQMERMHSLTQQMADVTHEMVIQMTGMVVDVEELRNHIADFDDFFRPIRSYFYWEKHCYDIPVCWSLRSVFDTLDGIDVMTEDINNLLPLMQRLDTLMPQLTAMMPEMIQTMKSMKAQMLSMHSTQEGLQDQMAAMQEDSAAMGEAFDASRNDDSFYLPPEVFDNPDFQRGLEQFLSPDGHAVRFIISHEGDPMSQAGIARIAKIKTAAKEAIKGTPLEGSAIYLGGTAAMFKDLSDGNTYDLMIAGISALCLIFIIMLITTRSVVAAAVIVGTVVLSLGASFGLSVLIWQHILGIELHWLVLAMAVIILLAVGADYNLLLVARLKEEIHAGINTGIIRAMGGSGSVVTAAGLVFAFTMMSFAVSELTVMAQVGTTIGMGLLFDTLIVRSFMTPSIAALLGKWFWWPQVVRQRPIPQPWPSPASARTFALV

B1: Mycobacterium smegmatis acyl carrier protein AcpM (MSMEG_4326) (natural protein)
chain: MAATQEEIIAGLAEIIEEVTGIEPSEVTPEKSFVDDLDIDSLSMVEIAVQTEDKYGVKIPDEDLAGLRTVGDVVAYIQKLEEENPEAAAALREKFAADQ
modifications: 4'-phosphopantetheine (Ppant) covalently attached to Ser41 via a phosphodiester (holo-form)
B1: binds.

Reference: paper PMC12122801 (Nature Communications, 2025)
